Measured values from patent US20170224836A1 (Novartis, published 2017).
Like-named read-outs stand apart in the source and are kept apart here.

Legend:
human CDH6 on cells = molecular target: T1, human CDH6 on cells (human, UniProt P55285 54-790); assay: FACS on OVCAR3 cells
T1 sequence: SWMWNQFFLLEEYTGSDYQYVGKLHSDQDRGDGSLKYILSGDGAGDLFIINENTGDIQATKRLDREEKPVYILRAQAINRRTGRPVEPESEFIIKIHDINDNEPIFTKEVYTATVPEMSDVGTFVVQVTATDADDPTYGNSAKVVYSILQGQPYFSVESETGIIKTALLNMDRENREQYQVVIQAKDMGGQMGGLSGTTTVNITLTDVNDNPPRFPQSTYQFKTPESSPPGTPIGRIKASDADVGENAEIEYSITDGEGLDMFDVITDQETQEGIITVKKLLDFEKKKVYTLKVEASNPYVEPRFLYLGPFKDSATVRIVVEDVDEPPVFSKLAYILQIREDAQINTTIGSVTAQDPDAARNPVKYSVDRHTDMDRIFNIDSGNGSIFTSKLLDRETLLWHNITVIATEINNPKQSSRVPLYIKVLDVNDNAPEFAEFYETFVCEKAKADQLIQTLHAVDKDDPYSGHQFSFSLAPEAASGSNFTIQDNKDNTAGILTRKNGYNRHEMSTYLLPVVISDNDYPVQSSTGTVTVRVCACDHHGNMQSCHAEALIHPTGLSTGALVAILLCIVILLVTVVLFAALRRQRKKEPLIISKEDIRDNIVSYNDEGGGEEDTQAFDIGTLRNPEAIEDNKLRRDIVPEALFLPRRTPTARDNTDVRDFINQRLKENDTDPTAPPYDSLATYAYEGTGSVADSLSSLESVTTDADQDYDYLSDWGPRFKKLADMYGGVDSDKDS

rat CDH6 on cells = molecular target: T2, rat CDH6 on cells (rat, UniProt P55280 54-789); assay: FACS on CHO-ratCDH6 cells
T2 sequence (looked up): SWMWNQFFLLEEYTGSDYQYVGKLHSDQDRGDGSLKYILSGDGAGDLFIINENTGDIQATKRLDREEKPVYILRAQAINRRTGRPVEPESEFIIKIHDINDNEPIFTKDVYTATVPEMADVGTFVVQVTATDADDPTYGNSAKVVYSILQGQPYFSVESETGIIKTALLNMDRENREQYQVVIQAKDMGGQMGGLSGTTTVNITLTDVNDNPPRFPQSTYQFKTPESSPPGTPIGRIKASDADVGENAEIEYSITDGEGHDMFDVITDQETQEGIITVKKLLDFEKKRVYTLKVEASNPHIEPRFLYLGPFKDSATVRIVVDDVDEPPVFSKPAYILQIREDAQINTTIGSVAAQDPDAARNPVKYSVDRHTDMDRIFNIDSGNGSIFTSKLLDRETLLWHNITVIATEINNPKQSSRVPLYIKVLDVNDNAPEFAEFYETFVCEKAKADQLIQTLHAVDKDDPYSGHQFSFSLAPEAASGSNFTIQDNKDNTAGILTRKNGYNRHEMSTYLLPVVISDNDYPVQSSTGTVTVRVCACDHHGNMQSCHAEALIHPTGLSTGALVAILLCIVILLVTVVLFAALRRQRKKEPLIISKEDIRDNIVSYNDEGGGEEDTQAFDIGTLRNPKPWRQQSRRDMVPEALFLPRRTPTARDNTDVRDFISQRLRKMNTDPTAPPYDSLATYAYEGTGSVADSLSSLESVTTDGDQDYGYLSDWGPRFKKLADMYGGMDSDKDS

mouse CDH6 on cells = molecular target: T3, mouse CDH6 on cells (mouse, UniProt P97326 54-790); assay: FACS on CHO-mouseCDH6 cells
T3 sequence (looked up): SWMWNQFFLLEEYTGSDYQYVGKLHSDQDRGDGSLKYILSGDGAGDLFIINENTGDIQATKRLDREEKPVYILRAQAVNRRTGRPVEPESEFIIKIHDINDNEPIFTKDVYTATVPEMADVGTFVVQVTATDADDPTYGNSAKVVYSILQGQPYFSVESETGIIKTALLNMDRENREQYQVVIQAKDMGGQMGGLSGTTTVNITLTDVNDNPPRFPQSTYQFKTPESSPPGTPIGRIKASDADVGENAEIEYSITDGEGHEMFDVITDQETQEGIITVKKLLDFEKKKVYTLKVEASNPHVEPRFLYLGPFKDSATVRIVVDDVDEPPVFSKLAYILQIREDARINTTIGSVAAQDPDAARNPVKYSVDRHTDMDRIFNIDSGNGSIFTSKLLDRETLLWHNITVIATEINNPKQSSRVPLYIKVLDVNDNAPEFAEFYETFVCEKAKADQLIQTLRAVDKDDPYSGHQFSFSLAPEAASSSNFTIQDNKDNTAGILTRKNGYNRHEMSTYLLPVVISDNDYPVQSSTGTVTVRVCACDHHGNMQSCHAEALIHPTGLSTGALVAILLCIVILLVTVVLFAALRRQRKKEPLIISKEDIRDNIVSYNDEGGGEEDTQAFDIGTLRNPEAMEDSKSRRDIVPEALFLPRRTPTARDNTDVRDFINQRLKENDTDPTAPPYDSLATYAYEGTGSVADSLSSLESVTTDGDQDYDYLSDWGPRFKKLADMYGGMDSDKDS

hCDH6aa54-615 APPavi [1] = molecular target: T4, hCDH6aa54-615 APPavi (human, UniProt P55285 54-615); assay: SPR binning
T4 sequence: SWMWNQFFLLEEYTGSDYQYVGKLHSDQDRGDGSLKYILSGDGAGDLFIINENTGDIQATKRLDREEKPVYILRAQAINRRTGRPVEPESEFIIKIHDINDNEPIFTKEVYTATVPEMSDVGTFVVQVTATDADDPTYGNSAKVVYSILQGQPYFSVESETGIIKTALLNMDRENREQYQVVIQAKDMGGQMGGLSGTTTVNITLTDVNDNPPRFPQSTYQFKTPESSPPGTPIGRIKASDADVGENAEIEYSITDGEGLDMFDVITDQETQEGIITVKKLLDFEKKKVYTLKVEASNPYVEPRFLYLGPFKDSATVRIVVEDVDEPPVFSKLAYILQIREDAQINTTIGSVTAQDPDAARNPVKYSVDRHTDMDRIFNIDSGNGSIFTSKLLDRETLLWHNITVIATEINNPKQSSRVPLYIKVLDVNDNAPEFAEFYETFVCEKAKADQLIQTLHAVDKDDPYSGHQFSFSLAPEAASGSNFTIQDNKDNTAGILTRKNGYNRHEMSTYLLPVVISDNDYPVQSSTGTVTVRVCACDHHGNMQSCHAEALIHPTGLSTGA

hCDH6aa54-615 APPavi [2] = molecular target: T4, hCDH6aa54-615 APPavi; assay: SPR binning; remark: listed apart in the source

- EC50 (read off the curve) (human CDH6 on cells): ~0.4 nM
- EC50 (read off the curve) (rat CDH6 on cells): ~1 nM
- EC50 (read off the curve) (mouse CDH6 on cells): ~1 nM
- response of secondary antibody on primary antibody-CDH6 complex (hCDH6aa54-615 APPavi [1]): -3.26
- response of secondary antibody on primary antibody-CDH6 complex (hCDH6aa54-615 APPavi [2]): 24.7
B1: NOV0712 (antibody, human IgG1, kappa, V domains shown)
VH: QVQLLESGGGLVQPGGSLRLSCAASGFTFSSHGMHWVRQAPGKGLEWVSVISGSGSNTGYADSVKGRFTISRDNSKNTLYLQMNSLRAEDTAVYYCARQWGSYAFDSWGQGTLVTVSS
VL: DIQMTQSPSSLSASVGDRVTITCRASQSISSYLNWYQQKPGKAPKLLIYAVSTLQSGVPSRFSGSGSGTDFTLTISSLQPEDFATYYCQQSGTFPPTTFGQGTKVEIKR
